# Reference: publication PMC6902002, “Recognition and processing of branched DNA substrates by Slx1–Slx4 nuclease”
# T1: Tt-Slx1 E79Q-Slx4CCD3 (Thielavia terrestris, UniProt G2QV68;G2RCY5 1-324;834-936, E79Q)
# T1 sequence 1: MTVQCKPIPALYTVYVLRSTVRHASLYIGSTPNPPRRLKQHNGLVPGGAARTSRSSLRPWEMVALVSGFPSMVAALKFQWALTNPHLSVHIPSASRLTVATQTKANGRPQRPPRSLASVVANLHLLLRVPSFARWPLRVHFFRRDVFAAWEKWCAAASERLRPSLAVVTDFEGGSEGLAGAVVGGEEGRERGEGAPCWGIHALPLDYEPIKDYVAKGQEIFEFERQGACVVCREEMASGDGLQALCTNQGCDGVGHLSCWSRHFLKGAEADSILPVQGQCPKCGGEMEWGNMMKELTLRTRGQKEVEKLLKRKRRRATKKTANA
# T1 sequence 2: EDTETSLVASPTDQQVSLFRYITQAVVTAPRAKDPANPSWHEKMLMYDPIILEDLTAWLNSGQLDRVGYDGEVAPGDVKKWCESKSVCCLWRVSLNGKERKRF
# B1: self-annealing splayed-arm crystallization DNA (structured_DNA)
# DNA: CAATCGGCAATGACCTTTGGTCATTCGGCAGAT
# Biological target: T1, Tt-Slx1 E79Q-Slx4CCD3
# Test: X-ray crystallography; Zn2+ in RING domain; 0.2 M CaCl2, 5 mM EDTA, pH 6.0; 2.7 A; Fluorescence anisotropy: 20 mM HEPES pH 7.5, 2.5 mM CaCl2, 100 mM NaCl, 0.1 mg/ml BSA, 25 C; 25 nM DNA, 0-500 nM protein
# Settings: protein: recombinant; tags: N-terminal 6xHis on Slx1; Slx4CCD3 untagged; chain copies: 2;2; self-annealed splayed arm; single G-A mismatch and unpaired bases in crystal
binder,measurement,value
B1,binding result,binds
